# According to paper PMC3715405:
# T1: WT tetherin (human tetherin internally tagged with an HA epitope at amino acid 155) (human), Q10589
# T1 chain: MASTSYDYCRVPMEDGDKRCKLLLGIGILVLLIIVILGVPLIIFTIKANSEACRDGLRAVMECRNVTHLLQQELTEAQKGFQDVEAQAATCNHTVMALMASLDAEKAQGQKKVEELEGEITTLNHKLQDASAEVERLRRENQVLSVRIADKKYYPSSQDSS
# Molecular target: T1, WT tetherin (human tetherin internally …)
# Assay: non-reducing SDS-PAGE and western blot; lysates of 293T cells cotransfected with HIV-1 ΔVpu proviral plasmid and tetherin plasmids, lysed in non-reducing buffer, probed with anti-HA; shows disulphide-linked dimers
# Conditions: remark: other sources report otherwise
binder,measurement,value
"WT tetherin (human tetherin internally tagged with an HA epitope at amino acid 155), Q10589 1-161 (natural protein, here or on the partner: glycosylphosphatidylinositol (GPI) membrane anchor at the C-terminus; heterogeneously glycosylated; glycosylphosphatidylinositol (GPI) membrane anchor at the C-terminus; heterogeneously glycosylated) MASTSYDYCRVPMEDGDKRCKLLLGIGILVLLIIVILGVPLIIFTIKANSEACRDGLRAVMECRNVTHLLQQELTEAQKGFQDVEAQAATCNHTVMALMASLDAEKAQGQKKVEELEGEITTLNHKLQDASAEVERLRRENQVLSVRIADKKYYPSSQDSS",stoichiometry N,2
